What was measured:
[1] = molecular target: T1, human FUS (fused in sarcoma) protein
T1 chain: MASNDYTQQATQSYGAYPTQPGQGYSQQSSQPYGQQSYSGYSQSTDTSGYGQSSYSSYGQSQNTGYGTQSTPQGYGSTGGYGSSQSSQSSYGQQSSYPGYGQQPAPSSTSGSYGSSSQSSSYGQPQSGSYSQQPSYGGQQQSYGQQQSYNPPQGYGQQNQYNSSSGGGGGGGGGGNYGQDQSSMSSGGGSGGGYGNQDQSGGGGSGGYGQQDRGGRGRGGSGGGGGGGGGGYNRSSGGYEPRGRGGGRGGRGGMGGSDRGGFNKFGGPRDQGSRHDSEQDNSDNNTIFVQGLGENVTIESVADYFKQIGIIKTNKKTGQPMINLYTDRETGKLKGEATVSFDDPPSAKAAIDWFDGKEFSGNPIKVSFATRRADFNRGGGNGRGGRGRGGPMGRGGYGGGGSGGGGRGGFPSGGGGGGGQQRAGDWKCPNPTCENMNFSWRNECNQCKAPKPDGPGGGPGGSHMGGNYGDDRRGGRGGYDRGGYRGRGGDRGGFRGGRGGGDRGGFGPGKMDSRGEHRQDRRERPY

[2] = molecular target: T2, human FUS (fused in sarcoma) protein (human, UniProt P35637 1-526); experiment: immunofluorescence co-localisation in Drosophila brain neurons (anti-GstO2 / anti-FUS)
T2 construct: Human FUS was expressed in Drosophila neurons with the elav-Gal4 driver and seen as cytoplasmic aggregates; also called human wild-type FUS; FUS aggregate
T2 sequence: T1 chain

B1: Drosophila omega class glutathione transferase 2 (GstO2) (enzyme)
chain: MALPQKHFKRGSTKPELPEDGVPRFFSMAFCPFSHRVRLMLAAKHIEHHKIYVDLIEKPEWYKDFSPLGKVPALQLTGVKDQPTLVESLIIAEYLDQQYPQTRLFPTDPLQKALDKILIERFAPVVSAIYPVLTCNPNAPKDAIPNFENALDVFEVELGKRGTPYFAGQHIGIVDYMIWPWFERFPSMKINTEQKYELDTKRFEKLLKWRDLMTQDEVVQKTALDVQLHAEFQKSKTLGNPQYDIAFKGTP
notes: also called endogenous GstO2
FUS glutathionylation and FUS aggregate formation (double immunofluorescence of fly brain tissue, anti-FUS / anti-GSH) [1]: GstO2 coexpression inhibits an increase in formation of a FUS aggregate, and reduces FUS glutathionylation | binding result [2]: binds

Reference: patent US20220026447A1 (SOONCHUNHYANG UNIVERSITY INDUSTRY ACADEMY COOPERATION …, published 2022)
